# Positions of bridges follow the written chain, without caps; N, C: chain ends. No end group written: not given here.
# T1: hu-IL-2Rβ subunit (human, UniProt P14784 27-240, limits assumed)
# T1 construct: also called human interleukin-2 receptor subunit β; CD122
# T1 sequence (looked up): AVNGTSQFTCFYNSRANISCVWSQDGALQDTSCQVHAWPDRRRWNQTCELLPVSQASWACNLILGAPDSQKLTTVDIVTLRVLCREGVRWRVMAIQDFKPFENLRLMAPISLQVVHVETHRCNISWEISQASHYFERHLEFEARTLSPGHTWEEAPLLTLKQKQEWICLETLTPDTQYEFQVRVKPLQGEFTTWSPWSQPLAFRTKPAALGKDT
# Molecular target: T1, hu-IL-2Rβ subunit
# Assay: phage ELISA competition assay
row,Binder,IC50
1,WTPCWIAHLGDLCDLEPQDDTD [SEQ ID NO 226],< 100 µM
2,WKPCFIASLGELCDLDQGSVEV [SEQ ID NO 227],< 100 µM
3,WKPCWMAALGELCDLERSVGKV [SEQ ID NO 228],< 100 µM
4,WKPCWRAQLGELCDLELGPSER [SEQ ID NO 229],< 100 µM
5,FFPCWMGQLGDLCDLEVRSMQK [SEQ ID NO 230],< 100 µM
6,YWPCSMASLGELCDLEWQGRLP [SEQ ID NO 231],< 100 µM
7,WYPCWMAQLGELCDLQTMGYSH [SEQ ID NO 93],< 100 µM
8,WYPCYMASLGELCDLQSSISPR [SEQ ID NO 232],< 100 µM
9,WYPCWMAQLGELCDHEWPSYGA [SEQ ID NO 233],< 100 µM
10,MGSWLPCWMAQLGDLCDVEGGM [SEQ ID NO 234],< 100 µM
11,QKGFLPCWRAQLGQLCDMESQY [SEQ ID NO 235],< 100 µM
12,GSGWQPCWMADLGELCDLDNEK [SEQ ID NO 236],< 100 µM
13,WRRWYPCWMAQLGELCDLDQWT [SEQ ID NO 237],< 100 µM
14,RRSWYPCRIAQLGELCDLDPRV (disulfide 7-16 (inferred)) [SEQ ID NO 238],< 100 µM
15,AYRIYPCWKAQLGELCDLDNAD [SEQ ID NO 239],< 100 µM
16,QRNSFPCWLAQLGDLCDLGDWA [SEQ ID NO 240],< 100 µM
17,QPAWLPCWLAQLGELCDLGTGA [SEQ ID NO 241],< 100 µM
18,AGDWLPCWMAELGELCDLEGPT [SEQ ID NO 94],< 100 µM
19,SRFWQPCWMAQLGELCHLDPQM [SEQ ID NO 242],< 100 µM
20,YLNFNPCWTAQLGELCDLASGE [SEQ ID NO 243],< 100 µM
21,STGWYPCWIAEFGELCDLVKPH [SEQ ID NO 244],< 100 µM
22,AHWSQPCWTAQLGELCDLDMGD [SEQ ID NO 245],< 100 µM
23,HPVRYPCWVAQLGELCDLENGN [SEQ ID NO 246],< 100 µM
24,QTGSYPCWIAHLGELCDLEGSA [SEQ ID NO 247],< 100 µM
25,TGWWYPCWMAQLGELCDLQQT (disulfide 7-16 (inferred)) [SEQ ID NO 248],< 100 µM

row,Binder,IC50
1,DLWQPCWMARLGELCDLKG [SEQ ID NO 249],< 100 µM
2,MGTGWQNYCRYAQLGELCLL [SEQ ID NO 250],< 100 µM
3,WYPCGVAQPGDLCDLE [SEQ ID NO 251],< 100 µM
4,WLPCWIASLGELCDLDTGKRQG [SEQ ID NO 95],< 100 µM
5,MLGEWLCEMDQLGYLCYLDHGD [SEQ ID NO 252],< 100 µM
6,WDGWECGMDHDGWVCEFWGE [SEQ ID NO 253],< 100 µM
7,WYPCWIAQLGELCDLDAKGQRR [SEQ ID NO 337],< 100 µM
8,TNNFYPCWLAKLGDLCDFDDLN (disulfide 7-16 (inferred)) [SEQ ID NO 338],< 100 µM
9,WYPCWIARVGELCDLEEGPVNR [SEQ ID NO 339],< 100 µM
10,AVEFYPCWLARIGELCDLVEP [SEQ ID NO 340],< 100 µM
11,WYPCWLAQLGDLCDLD [SEQ ID NO 87],< 100 µM
12,WYPCWLAQLGELCDLD [SEQ ID NO 130],< 100 µM
13,WYPCWMARLGELCDLE [SEQ ID NO 137],< 100 µM
14,WYPCWIAKLGELCDLE [SEQ ID NO 142],< 100 µM
15,WHPCWIAQLGELCDLE [SEQ ID NO 147],< 100 µM
16,WYPCWIAQLGELCDLE [SEQ ID NO 148],< 100 µM
17,WYPCWIAHLGELCDLE [SEQ ID NO 341],< 100 µM
18,WYPCWIAQLGELCDLV [SEQ ID NO 352],< 100 µM
19,WYPCWLAQLGELCDLD [SEQ ID NO 361],< 100 µM
20,WYPCWLAHLGELCDLE [SEQ ID NO 369],< 100 µM
21,WYPCWMAQLGELCDMD (disulfide 4-13 (inferred)) [SEQ ID NO 376],< 100 µM
22,WYPCWMARMGELCDLE [SEQ ID NO 384],< 100 µM
23,RYPCWIAQLGELCDLD [SEQ ID NO 387],< 100 µM
24,WHPCWIAHLGELCDLE [SEQ ID NO 388],< 100 µM
25,WYPCWLAHLGELCDLA [SEQ ID NO 395],< 100 µM

# Reference: patent publication US20240101959A1, “USE OF IL-2R-BETA-GAMMA AGONIST PEPTIDES IN CELL MANUFACTURING” (MEDIKINE, INC., priority 2022, published 2024)
